Data on 27 molecules can be found in patent US20250223330A1 (OUTPACE BIO, published 2025).

The Kd is the constant that tells how readily two partners part at equilibrium. A low value points to a tighter complex.

T1: IL2Rb/g-Fc (UniProt P14784 27-239; P31785 23-262, limits assumed)
T1 construct: Captured at 12 ug/mL on ProA tips; also called IL-2/15Rβγ; IL-2Rβγ; not shown: Fc part
T1 sequence (looked up) 1: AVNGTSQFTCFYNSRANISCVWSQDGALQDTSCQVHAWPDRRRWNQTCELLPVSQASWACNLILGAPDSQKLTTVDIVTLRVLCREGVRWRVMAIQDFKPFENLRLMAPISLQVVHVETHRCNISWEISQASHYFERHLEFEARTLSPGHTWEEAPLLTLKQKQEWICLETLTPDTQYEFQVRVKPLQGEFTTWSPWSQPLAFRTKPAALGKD
T1 sequence (looked up) 2: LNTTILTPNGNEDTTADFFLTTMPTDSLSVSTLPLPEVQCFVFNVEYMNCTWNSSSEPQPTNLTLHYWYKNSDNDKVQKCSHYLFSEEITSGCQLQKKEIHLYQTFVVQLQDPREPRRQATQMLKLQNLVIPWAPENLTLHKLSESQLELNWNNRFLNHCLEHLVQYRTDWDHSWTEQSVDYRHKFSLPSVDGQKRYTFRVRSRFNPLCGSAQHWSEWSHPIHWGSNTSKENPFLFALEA

T2: CD25-Fc (UniProt P01589 22-213, limits assumed)
T2 construct: Bought reagent; The same stock (100 ug/mL aliquots) was used as CD25-Fc in the ELISA and as IL2Ra-Fc on ProA tips in the Octet assay; also called IL2Ra-Fc; CD25 (IL2Ra); not shown: Fc part of the bought fusion
T2 sequence (looked up): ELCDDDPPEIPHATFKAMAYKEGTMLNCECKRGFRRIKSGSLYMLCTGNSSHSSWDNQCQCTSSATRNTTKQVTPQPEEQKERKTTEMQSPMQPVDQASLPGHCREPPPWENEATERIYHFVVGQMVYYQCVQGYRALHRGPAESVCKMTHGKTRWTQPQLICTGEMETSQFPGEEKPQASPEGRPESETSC

B1: Designed Cytokine No. 153 (designed binder)
chain: APTSSSTKKTQLQLEHLLLDLQMILNGINNMNADPELVEFLNRWITFCQSIISTGSVDPEELAKELQKLEEELKPLEEVLNLAQSKNFHLRPRDLISNINVIVLELKGSGSGNWSHPQFEK
notes: also called Design 3
B2: Designed Cytokine No. 169 (designed binder)
chain: APTSSSTKKTQLQLEHLLLDLQMILNGINNMNADPELVEFLNRWITFCQSIISTGSLEDLKHLQALEEELKPLEEVLNLAQSKNFHLRPRDLISNINVIVLELKGSGSGNWSHPQFEK
notes: also called Design 1
B3: Designed Cytokine No. 39 (designed binder)
chain: APTSSSTKKTQLQLEHLLLDLQMILNGINNMNADPELVEFLNRWITFCQSLIKKGSNEDLKHLQALEEELKPLEEVLNLAQSKNFHLRPRDLISNINVIVLELKGSGSGGSGNWSHPQFEK
B4: Designed Cytokine No. 40 (designed binder)
chain: B3 chain with M31G
B5: SEQ ID NO 22 (designed binder)
chain: APTSSSTKKTQLQLEHLLLDLQMILNLAEVDPTMKEFLNRWITFCESNSESALKHLQALEEELKPLEEVLNLAQSKNFHLRPRDLISNINVIVLELKGS
notes: ELISA captured STII-tagged protein from supernatant; also called Designed Cytokine No. 22
B6: SEQ ID NO 26 (designed binder)
chain: APTSSSTKKTQLQLEHLLLDLQMILNFPVDSEMVEFLNRWITFAEKGTEDALKELQALEEELKPLEEVLNLAQSKNFHLRPRDLISNINVIVLELKGS
notes: ELISA captured STII-tagged protein from supernatant; also called Designed Cytokine No. 26
B7: SEQ ID NO 23 (designed binder)
chain: B6 chain with E45Q, T48D, D50S, E54H
notes: ELISA captured STII-tagged protein from supernatant; also called Designed Cytokine No. 23
B8: SEQ ID NO 25 (designed binder)
chain: B6 chain with L52N
notes: ELISA captured STII-tagged protein from supernatant; also called Designed Cytokine No. 25
B9: SEQ ID NO 31 (designed binder)
chain: B6 chain with E61R, L71R
notes: ELISA captured STII-tagged protein from supernatant; also called Designed Cytokine No. 31
B10: SEQ ID NO 32 (designed binder)
chain: APTSSSTKKTQLQLEHLLLDLQMILNGINNYKNPKLTRMLTFGGTATIVEFLNRWITACQREADPEALQALEEELKPLEEVLNLAQSKNFHLRPRDLISNINVIVLELMGS
notes: ELISA captured STII-tagged protein from supernatant; also called Designed Cytokine No. 32
B11: SEQ ID NO 37 (designed binder)
chain: APTSSSTKKTQLQLEHLLLDLQMILNGINNYKNPKLTKLDPSLVEFLNRWITFCQSATSDPDLLKHLQALEEELKPLEEVLNLAQSKNFHLRPRDLISNINVIVLELKGS
notes: ELISA captured STII-tagged protein from supernatant; also called Designed Cytokine No. 37
B12: SEQ ID NO 20 (designed binder)
chain: APTSSSTKKTQLQLEHLLLDLQMIANALNKLGIESPFLNRWITFCQSVISASDDTREELKHLQALEEELKPLEEVLNLAQSKNFHLRPRDLISNINVIVLELKGS
notes: ELISA captured STII-tagged protein from supernatant; also called Designed Cytokine No. 20
B13: SEQ ID NO 33 (designed binder)
chain: APTSSSTKKTQLQAEHLLLDLQMILNGINNYKNPKLTRMLTFGGTATIVEFLNRWITFCESGADEEAAKSLQALEEELKPLEEVLNLAQSKNFHLRPRDLISNINVIVLELKGS
notes: ELISA captured STII-tagged protein from supernatant; also called Designed Cytokine No. 33
B14: SEQ ID NO 17 (designed binder)
chain: APTSSSTKKTQLQLEHLLLDLQMILNGMNNGNADPELVEFLNRWITFAQDGSADLKHLQALEEELKPLEEVLNLAQSKNFHLRPRDLISNINVIVLELKGS
notes: ELISA captured STII-tagged protein from supernatant; also called Designed Cytokine No. 17
B15: SEQ ID NO 18 (designed binder)
chain: B14 chain with M28I, G31M
notes: ELISA captured STII-tagged protein from supernatant; also called Designed Cytokine No. 18
B16: SEQ ID NO 35 (designed binder)
chain: APTSSSTKKTQLQLEHLLLDLQMILNGINNYKNPKLTEIDPKLVEFLNRWITFCQTIINGGESATLKHLQALEEELKPLEEVLNLAQSKNFHLRPRDLISNINVIVLELKGS
notes: ELISA captured STII-tagged protein from supernatant; also called Designed Cytokine No. 35
B17: SEQ ID NO 36 (designed binder)
chain: B16 chain with T56S, G61D, A64F, T65S
notes: ELISA captured STII-tagged protein from supernatant; also called Designed Cytokine No. 36
B18: SEQ ID NO 38 (designed binder)
chain: APTSSSTKKTQLQLEHLLLDLQMILNGINNMNADPELVEFLNRWITFCQTAISTGKDNLKHLQALEEELKPLEEVLNLAQSKNFHLRPRDLISNINVIVLELKGS
notes: ELISA captured STII-tagged protein from supernatant; also called Designed Cytokine No. 38
B19: SEQ ID NO 28 (designed binder)
chain: APTSSSTKKTQLQLEHLLLDLQMILNGAEVDPKIKEFLNRWITFCQSVIKANKDTREELKHLQALEERLKPLEEVLNRAQSKNFHLRPRDLISNINVIVLELKGS
notes: ELISA captured STII-tagged protein from supernatant; also called Designed Cytokine No. 28
B20: SEQ ID NO 21 (designed binder)
chain: APTSSSTKKTQLQLEHLLLDLQMILNALKKLNINSPMQEFLNRWITFCESNTEDALKHLQALEEELKPLEEVLNLAQSKNFHLRPRDLISNINVIVLELKGS
notes: ELISA captured STII-tagged protein from supernatant; also called Designed Cytokine No. 21
B21: SEQ ID NO 30 (designed binder)
chain: B20 chain with E65R, L75R
notes: ELISA captured STII-tagged protein from supernatant; also called Designed Cytokine No. 30
B22: SEQ ID NO 19 (designed binder)
chain: APTSSSTKKTQLQLEHLLLDLQMIANALNKLGIESPFLNRWITFCQSNHEDAAKHLQALEEELKPLEEVLNLAQSKNFHLRPRDLISNINVIVLELMGS
notes: ELISA captured STII-tagged protein from supernatant; also called Designed Cytokine No. 19
B23: SEQ ID NO 27 (designed binder)
chain: APTSSSTKKTQLQLEHLLLDLQMILNGINNMNADPELVEFLNRWITFCQSLIKKGSNEDLKHLQALEERLKPLEEVLNRAQSKNFHLRPRDLISNINVIVLELKGS
notes: ELISA captured STII-tagged protein from supernatant; also called Designed Cytokine No. 27
B24: SEQ ID NO 24 (designed binder)
chain: APTSSSTKKTQLQLEHLELDLQMILNLAEVDPTMKEFLNRWITEAQSSNATLKSLQALEEELKPLEEVLNLAQSKNFHLRPRDLISNINVIVLELKGS
notes: ELISA captured STII-tagged protein from supernatant; also called Designed Cytokine No. 24
B25: SEQ ID NO 34 (designed binder)
chain: APTSSSTKKTQLQLEHLLLDLQMILNGINNYKNPKLTEIDPKLVEFLNRWITFCQSAIKSGSNTAKELQALEEELKPLEEVLNLAQSKNFHLRPRDLISNINVIVLELAGS
notes: ELISA captured STII-tagged protein from supernatant; also called Designed Cytokine No. 34
B26: SEQ ID NO 29 (designed binder)
chain: APTSSSTKKTQLQLEHLLLDLQMILNALNKLNINDHIVEFLNRWITFCQSATSDPDLLKHLQALEERLKPLEEVLNRAQSKNFHLRPRDLISNINVIVLELKGS
notes: ELISA captured STII-tagged protein from supernatant; also called Designed Cytokine No. 29

Changes are numbered by the printed parent chain.

One assay deals with T1, IL2Rb/g-Fc. The assay is described as follows: Octet (BLI), IL2Rb/g-Fc captured on ProA tips, cytokine in solution.
Settings: not given
Background: BLI is a label-free optical method that tracks binding on a fibre tip over time.
In turn, B1 displayed a dissociation constant (Kd) of 3.9 nM.

B2 displayed a Kd of around 1.6 nM.

Another assay addresses T2, CD25-Fc. Put plainly: ELISA, STII-tagged cytokine captured on Strep-Tactin plate, CD25-Fc detected.
Settings: not given
With B3, the binding result is on record as “no binding”. The same measure, in the same setting: the result for B4 reads “no binding”.

The target in the next assay is CD25-Fc (UniProt P01589). Put plainly: BLI. As to conditions: ligand.
Molecule WT IL-2 (from UniProt P60568 21-153) gave a Kd of 20 nM.

Another assay has as its target T2, CD25-Fc. Put plainly: ELISA, STII-tagged cytokine captured on Strep-Tactin plate, CD25-Fc detected (FIG. 5A).
Settings: not given
A general note: In an ELISA, binding on a coated surface is turned into a signal by an enzyme label.
Turning to B5, the binding result is reported as “no binding”. For the molecule B6, the binding result is on record as “no binding”.

As to B7, the binding result is reported as “no binding”. On the same count and under the same terms, for B8 the value was “no binding”; for B9, “no binding”; for B10, “no binding”. The same measure, in the same setting: the result for B11 reads “no binding”; that for B12, “no binding”. Same read-out and setting: the result for B13 reads “no binding”; that for B14, “no binding”. Consider B15, for which the binding result is “no binding”. The same measure, in the same setting: the result for B16 reads “no binding”; that for B17, “no binding”; that for B18, “no binding”.

B19: the binding result is given as “no binding”. Same read-out and setting: the result for B20 reads “no binding”; that for B21, “no binding”. Same read-out and setting: the result for B22 reads “no binding”; that for B23, “no binding”. Same read-out and setting: for B24 the value was “no binding”; for B25, “no binding”; for B26, “no binding”.
